Assay results taken from PMC8013792, “Bacterial protein domains with a novel Ig‐like fold target human CEACAM receptors” (The EMBO Journal, 2021).

B1: IgSF (IgI3) domain of β protein, recombinant, biotinylated [modified: biotin, C-terminal] [Streptococcus agalactiae (GBS)] / recombinant CEACAM1 N-terminal domain, unglycosylated, 6xHis tagged [human] (parent complex)
chain 1: ANENNQQKIELTVSPENITVYEGEDVKFTVTAKSDSKTTLDFSDLLTKYNPSVSDRISTNYKTNTDNHKIAEITIKNLKLNESQTVTLKAKDDSGNVVEKTFTITVQKKEEKQLPSTGGS
chain 2: MAQLTTESMPFNVAEGKEVLLLVHNLPQQLFGYSWYKGERVDGNRQIVGYAIGTQQATPGPANSGRETIYPNASLLIQNVTQNDTGFYTLQVIKSDLVNEEATGQFHVY
B2: recombinant CEACAM1 N-terminal domain, unglycosylated, 6xHis tagged [human] / IgSF (IgI3) domain of β protein, recombinant, biotinylated [modified: biotin, C-terminal] [Streptococcus agalactiae (GBS)] (parent complex)
chain 1: B1 chain 2
chain 2: B1 chain 1

Variants of: B1
Assay: flow cytometry on coated dynabeads; parent: 800; read off a plot

| Variant | response [Geometric MFI] |
| --- | --- |
| chain 2 L97A | ~450 |
| chain 2 Q46A | ~510 |
| chain 2 V98A | ~590 |
| chain 2 I93A | ~240 |
| chain 2 F31A | ~390 |
| chain 2 Q91A | ~230 |
| chain 2 N99A | ~540 |

Variants of: B2
Assay: flow cytometry on coated dynabeads; parent: 390; read off a plot

| Variant | response [Geometric MFI] |
| --- | --- |
| chain 2 F42A | ~750 |
| chain 2 D55A | ~340 |
| chain 2 V53A | ~280 |
| chain 2 L46A | ~200 |
